Measurements reported in patent US11497788B2, “Supramolecular glycosaminoglycans” (Northwestern University, priority 2015, dated 2022).

Target: T1, noggin (Mus musculus, UniProt P97466)
T1 construct: purchased PeproTech; host or cells: E. coli
T1 sequence (P97466 with tags, fused parts or gaps): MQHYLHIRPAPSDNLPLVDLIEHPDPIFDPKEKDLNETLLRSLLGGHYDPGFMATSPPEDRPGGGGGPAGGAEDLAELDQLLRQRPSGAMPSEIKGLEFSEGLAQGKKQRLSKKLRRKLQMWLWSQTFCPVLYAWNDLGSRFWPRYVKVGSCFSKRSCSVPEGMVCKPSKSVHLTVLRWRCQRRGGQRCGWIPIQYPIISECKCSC
Assay: Noggin inhibition of BMP-2 activity in C2C12 cells
Assay type: cell-based, murine
Details: during osteoblast differentiation of C2C12
Description: C2C12 Cell Culture: C2C12 mouse myoblasts (ATCC) were maintained in Dulbecco's Modified Eagle's Medium with high glucose and L-glutamine (DMEM, ATCC), supplemented with 100 U/mL of penicillin and 100 μg/mL streptomycin (P/S, Life Technologies) and 10% heat inactivated FBS (Life Technologies), and passaged at 80-90% confluence. Media was changed every 2 days. Passages 3 to 8 were used for experiments. Cells were grown at 37° C., 5% CO2 in a humidified atmosphere. Cells were detached following a 3 minute incubation at 37° C. with 0.05% Trypsin-EDTA (Life Technologies), then resuspended in DMEM (10% FBS). Unless stated otherwise, cells were seeded at 75,000 cells/mL (400 μL/well in a 48-well plate), and allowed to attach for a minimum of 3 hours prior to experiments.
C2C12 Osteoblast Differentiation: PA samples were thermally annealed as described for Cryo-TEM. PA solutions were spun down, pipetted for homogeneous mixing, then diluted to 1 mM with DMEM (no FBS). […] Cells were cultured for 3 days without changing the media, and osteoblast differentiation was assessed.
Alkaline Phosphatase Activity: Alkaline phosphatase (ALP) activity was measured as a marker of osteoblast differentiation (ref. 38; incorporated by reference in its entirety). […] The ALP activity was assessed by reading the OD at 630 nm with Cytation3 microplate reader (BioTek). […]

Substance: 3,4,6S-GlcNAc PA (VVAAEEK) [PA 1, glycosylated peptide amphiphile: Alkyne PA click-conjugated with trisulfated monosaccharide 1]
- protection of BMP-2 from noggin antagonist: successfully protected
